In patent publication US20060259987A1 (UNIVERSITY OF UTAH RESEARCH FOUNDATION, published 2006):

T1: human neutrophil elastase (human, UniProt P08246 30-247, limits assumed)
T1 sequence (looked up): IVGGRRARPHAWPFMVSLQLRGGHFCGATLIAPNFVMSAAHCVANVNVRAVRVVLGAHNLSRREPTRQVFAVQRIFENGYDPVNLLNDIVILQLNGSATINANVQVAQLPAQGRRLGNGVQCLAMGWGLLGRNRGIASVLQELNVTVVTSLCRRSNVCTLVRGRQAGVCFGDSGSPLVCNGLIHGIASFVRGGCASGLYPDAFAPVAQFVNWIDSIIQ


Experiments:
human thrombin = human thrombin (human, UniProt P00734 328-622); assay: residual enzyme activity against time, pseudo-first-order, progressive (no heparin)
human factor Xa [1] = target: T2, human factor Xa (human, UniProt P00742 41-179; P00742 235-488, limits assumed); assay: as above
T2 construct: the active enzyme is a two-chain form of it; also called fXa
T2 sequence (P00742 41-179 limits assumed, chain 1 of 2): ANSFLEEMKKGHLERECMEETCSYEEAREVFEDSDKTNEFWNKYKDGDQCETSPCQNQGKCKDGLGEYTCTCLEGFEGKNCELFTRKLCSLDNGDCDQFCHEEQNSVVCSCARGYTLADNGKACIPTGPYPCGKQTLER
T2 sequence (P00742 235-488 limits assumed, chain 2 of 2): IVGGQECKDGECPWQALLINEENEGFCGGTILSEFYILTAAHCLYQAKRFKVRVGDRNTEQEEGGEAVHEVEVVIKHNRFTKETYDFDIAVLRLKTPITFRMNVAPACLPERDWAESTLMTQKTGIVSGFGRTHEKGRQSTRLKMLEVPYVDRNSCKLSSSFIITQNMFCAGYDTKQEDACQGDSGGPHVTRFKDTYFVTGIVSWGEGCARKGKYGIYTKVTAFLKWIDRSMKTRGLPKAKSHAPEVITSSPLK

[2] = target: T1, human neutrophil elastase; assay: cell-based or functional assay
human factor Xa [3] = target: T2, human factor Xa; assay: residual enzyme activity against time, pseudo-first-order, with heparin
Experimental: Polybrene was added with the chromogenic substrate to quench the heparin dependent reaction. The observed pseudo-first-order rate constants were calculated for each heparin (1 nM-5 nM) concentration from the slope of the log of residual proteinase activity vs. time. This was plotted against the heparin concentration to calculate the second-order rate constant for the inhibition by the heparin-ATIII complex, (Kₕₑₚ) from the equation Kobs=Kₕₑₚ[H]ₒ([AT]ₒ/[AT]ₒ+Kd)+Kuncat[AT]ₒ

Binder	kapp (apparent second-order inhibition rate constant) (human thrombin) [M⁻¹ s⁻¹]	kapp (apparent second-order inhibition rate constant) (human factor Xa [1]) [M⁻¹ s⁻¹]	halflife, min (HNE/hep) [2] [min]	kapp (apparent second-order inhibition rate constant) (human factor Xa [3]) [M⁻¹ s⁻¹]
LEAI.472 (other, Recombinant human ATIII variant made in Drosophila S2 cells on the S137A background) SPVDICTAKPRDIPMNPMCIYRSPEKKATEDEGSEQKIPEATNRRVWELSKANSRFATTFYQHLADSKNDNDNIFLSPLSISTAFAMTKLGACNDTLQQLMEVFKFDTISEKTSDQIHFFFAKLNCRLYRKANKASKLVSANRLFGDKSLTFNETYQDISELVYGAKLQPLDFKENAEQSRAAINKWVSNKTEGRITDVIPSEAINELTVLVLVNTIYFKGLWKSKFSPENTRKELFYKADGESCSASMMYQEGKFRYRRVAEGTQVLELPFKGDDITMVLILPKPEKSLAKVEKELTPEVLQEWLDELEEMMLVVHMPRFRIEDGFSLKEQLQDMGLVDLFSPEKSKLPGIVAEGRDDLYVSDAFHKAFLEVNEEGSEAAASTALEANGRSLNPNRVTFKANRPFLVFIREVPLNTIIFMGRVANPCVK	278	1800	30.1	298000
LEAI.480 (other, Recombinant human ATIII variant made in Drosophila S2 cells on the S137A background) SPVDICTAKPRDIPMNPMCIYRSPEKKATEDEGSEQKIPEATNRRVWELSKANSRFATTFYQHLADSKNDNDNIFLSPLSISTAFAMTKLGACNDTLQQLMEVFKFDTISEKTSDQIHFFFAKLNCRLYRKANKASKLVSANRLFGDKSLTFNETYQDISELVYGAKLQPLDFKENAEQSRAAINKWVSNKTEGRITDVIPSEAINELTVLVLVNTIYFKGLWKSKFSPENTRKELFYKADGESCSASMMYQEGKFRYRRVAEGTQVLELPFKGDDITMVLILPKPEKSLAKVEKELTPEVLQEWLDELEEMMLVVHMPRFRIEDGFSLKEQLQDMGLVDLFSPEKSKLPGIVAEGRDDLYVSDAFHKAFLEVNEEGSEAAASTALEAYGRSLNPNRVTFKANRPFLVFIREVPLNTIIFMGRVANPCVK	7310	24100	19.9	489000
LEAI.482 (other, Recombinant human ATIII variant made in Drosophila S2 cells on the S137A background) SPVDICTAKPRDIPMNPMCIYRSPEKKATEDEGSEQKIPEATNRRVWELSKANSRFATTFYQHLADSKNDNDNIFLSPLSISTAFAMTKLGACNDTLQQLMEVFKFDTISEKTSDQIHFFFAKLNCRLYRKANKASKLVSANRLFGDKSLTFNETYQDISELVYGAKLQPLDFKENAEQSRAAINKWVSNKTEGRITDVIPSEAINELTVLVLVNTIYFKGLWKSKFSPENTRKELFYKADGESCSASMMYQEGKFRYRRVAEGTQVLELPFKGDDITMVLILPKPEKSLAKVEKELTPEVLQEWLDELEEMMLVVHMPRFRIEDGFSLKEQLQDMGLVDLFSPEKSKLPGIVAEGRDDLYVSDAFHKAFLEVNEEGSEAAASTALEAHGRSLNPNRVTFKANRPFLVFIREVPLNTIIFMGRVANPCVK	2920	5360	25.3	831000
